Measurements taken from EP4786492A1 (Simcere Zaiming Pharmaceutical Co., Ltd., dated 2026).
Blank lines part the entries; values can stand above or below the binder they belong to.

Legend:
human DLL3-his protein [1] = molecular target: T1, human DLL3-his protein (human, UniProt Q9NYJ7 27-492); test: ELISA, coated DLL3-his
T1 construct: also called human DLL3 protein; DLL3 antigen protein; not shown: His tag
T1 sequence: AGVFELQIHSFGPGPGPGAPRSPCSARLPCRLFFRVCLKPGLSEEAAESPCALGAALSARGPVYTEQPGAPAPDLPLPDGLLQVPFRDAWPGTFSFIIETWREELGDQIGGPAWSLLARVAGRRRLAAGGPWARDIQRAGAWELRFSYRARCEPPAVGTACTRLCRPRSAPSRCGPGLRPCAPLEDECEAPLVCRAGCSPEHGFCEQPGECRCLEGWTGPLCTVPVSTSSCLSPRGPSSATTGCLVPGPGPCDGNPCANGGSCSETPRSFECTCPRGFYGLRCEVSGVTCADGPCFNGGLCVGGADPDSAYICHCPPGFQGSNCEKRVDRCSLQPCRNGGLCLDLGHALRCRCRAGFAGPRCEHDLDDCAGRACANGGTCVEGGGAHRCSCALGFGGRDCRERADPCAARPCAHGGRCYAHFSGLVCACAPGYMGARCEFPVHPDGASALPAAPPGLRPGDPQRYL

monkey DLL3-his protein = molecular target: T2, monkey DLL3-his protein (cynomolgus monkey, UniProt Q9NYJ7 27-490 (human entry)); test: ELISA, coated DLL3-his
T2 construct: a bought cynomolgus DLL3-His (Acro DL3-C52H3) is also named; also called monkey DLL3 protein; cynomolgus monkey DLL3-His; not shown: His tag
T2 chain: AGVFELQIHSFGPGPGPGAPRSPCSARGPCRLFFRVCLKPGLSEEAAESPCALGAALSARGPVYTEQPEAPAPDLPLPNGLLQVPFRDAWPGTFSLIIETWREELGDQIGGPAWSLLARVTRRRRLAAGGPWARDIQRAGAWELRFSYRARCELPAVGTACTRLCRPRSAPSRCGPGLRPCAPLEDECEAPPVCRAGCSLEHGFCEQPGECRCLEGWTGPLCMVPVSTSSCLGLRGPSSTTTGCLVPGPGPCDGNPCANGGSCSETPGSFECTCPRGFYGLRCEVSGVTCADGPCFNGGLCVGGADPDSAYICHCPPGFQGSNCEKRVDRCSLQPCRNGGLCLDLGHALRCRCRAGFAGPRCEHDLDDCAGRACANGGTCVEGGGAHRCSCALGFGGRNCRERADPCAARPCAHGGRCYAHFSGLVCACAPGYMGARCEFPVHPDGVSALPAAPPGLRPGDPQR

human DLL3-his protein [2] = molecular target: T1, human DLL3-his protein; test: SPR Biacore 8K, antibody captured on Protein A

binding result (human DLL3-his protein [1]): binds
binding result (monkey DLL3-his protein): binds
B1: SC16.56 (antibody, human IgG1, kappa, V domains shown)
VH: QVQLVQSGAEVKKPGASVKVSCKASGYTFTNYGMNWVRQAPGQGLEWMGWINTYTGEPTYADDFKGRVTMTTDTSTSTAYMELRSLRSDDTAVYYCARIGDSSPSDYWGQGTLVTVSS
VL: EIVMTQSPATLSVSPGERATLSCKASQSVSNDVVWYQQKPGQAPRLLIYYASNRYTGIPARFSGSGSGTEFTLTISSLQSEDFAVYYCQQDYTSPWTFGQGTKLEIKR
notes: expressed in the complete IgG format; variable regions from US20200138969A1; also called control antibody

binding result (monkey DLL3-his protein): binds
B2: BI3 (antibody, human IgG1, kappa, V domains shown)
VH: QVQLVQSGAEVKKPGASVKVSCKASGYTFTSYYVHWVRQAPGQGLEWMVIINPGGGTTSYAQKFLGRVTMTRDTSTNTVYMELKSLRSEDTAVYYCARGEAVTGNYFYYGMDVWGQGTTVTVSS
VL: DIQMTQSPSAMSASVGDRVTITCRASQGISNYLVWFQQKPGKAPKRLIYAVSSLYSGVPSRFSGSGSGTEFTLTISSLQPEDFATYYCLQHDSYPYTFGQGTKLEIKR
notes: expressed in the complete IgG format; variable regions from WO2019234220A1; also called control antibody

binding result (human DLL3-his protein [2]): binds
B3: Hab015VL4VH6b-hFc (Fc fusion)
scFv (part 1 of 2): NIVLTQSPATLSLSPGERATLSCKASENVGTYVSWFQQKPGQSPRLLIYGASNRYTGIPARFSGSGSGTDFTLTISSLEPEDFAVYYCGQFYSFPSTFGGGTKVEIK
scFv (part 2 of 2): EVQLVESGGGLVKPGGSLRLSCAASGITFSNFWMNWVRQAPEKGLEWVGQIRLKSDQYATHYAESVKGRFTISREDSKNTVYLQMNSLKTEDTAVYYCTTGYYFDYWGQGTTVTVSS
notes: humanized mab015, VL-linker-VH-human IgG1 Fc; also called Hab015L4H6b; not shown: linker; human IgG1 Fc fragment
